Results on one substance are retold here after paper PMC4628001, “Hybrid PET/optical imaging of integrin αVβ3 receptor expression using a ^64Cu-labeled streptavidin/biotin-based dimeric RGD peptide” (EJNMMI Research, 2015).

The assay concerns the target T1, integrin αVβ3 (Homo sapiens, UniProt P05106+P06756).
T1 construct: U87MG cells, which are known to express high levels of integrin αVβ3; endogenous in cells; host or cells: U87MG cells
In words: Cell integrin receptor binding, U87MG cells, ^125I-RGDyK radioligand. The note with it: displacement of ^125I-RGDyK, room temperature 1 h, pH 7.4 binding buffer, n = 3. The protocol: The integrin αVβ3 receptor binding study was performed using a previously reported procedure with a slight modification. ^125I-RGDyK was used as the radioligand and prepared immediately before use. […] All experiments were performed in triplicate. IC50 values were determined using GraphPad Prism software 5.

T1 sequence (P06756 31-889 limits assumed): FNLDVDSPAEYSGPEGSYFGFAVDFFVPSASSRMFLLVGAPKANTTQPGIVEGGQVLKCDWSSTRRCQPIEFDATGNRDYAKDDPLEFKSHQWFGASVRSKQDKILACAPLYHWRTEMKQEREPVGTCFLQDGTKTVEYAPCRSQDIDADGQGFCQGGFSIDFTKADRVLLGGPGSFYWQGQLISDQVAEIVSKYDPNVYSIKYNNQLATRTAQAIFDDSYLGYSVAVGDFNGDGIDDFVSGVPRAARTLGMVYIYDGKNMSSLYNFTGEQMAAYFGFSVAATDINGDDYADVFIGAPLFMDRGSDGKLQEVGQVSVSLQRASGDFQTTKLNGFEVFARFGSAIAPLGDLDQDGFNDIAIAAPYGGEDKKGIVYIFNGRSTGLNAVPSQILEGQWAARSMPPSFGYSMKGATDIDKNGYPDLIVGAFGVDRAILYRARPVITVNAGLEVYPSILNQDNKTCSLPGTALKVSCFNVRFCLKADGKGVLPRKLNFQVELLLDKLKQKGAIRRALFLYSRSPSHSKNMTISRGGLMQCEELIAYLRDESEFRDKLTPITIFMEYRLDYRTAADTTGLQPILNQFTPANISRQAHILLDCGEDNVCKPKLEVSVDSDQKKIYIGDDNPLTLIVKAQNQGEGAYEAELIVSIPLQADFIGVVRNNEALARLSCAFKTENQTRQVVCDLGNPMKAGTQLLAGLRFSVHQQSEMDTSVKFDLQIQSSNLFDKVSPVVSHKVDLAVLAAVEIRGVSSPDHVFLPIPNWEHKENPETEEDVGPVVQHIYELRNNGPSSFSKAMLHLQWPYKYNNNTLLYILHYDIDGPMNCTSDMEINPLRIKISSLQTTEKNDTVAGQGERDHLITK
T1 sequence (P06756 891-1048 partner limits assumed): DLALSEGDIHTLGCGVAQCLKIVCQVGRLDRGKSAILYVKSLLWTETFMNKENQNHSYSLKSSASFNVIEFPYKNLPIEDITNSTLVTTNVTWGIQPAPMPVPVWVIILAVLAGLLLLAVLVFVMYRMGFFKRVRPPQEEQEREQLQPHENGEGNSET
T1 sequence (P05106 27-788): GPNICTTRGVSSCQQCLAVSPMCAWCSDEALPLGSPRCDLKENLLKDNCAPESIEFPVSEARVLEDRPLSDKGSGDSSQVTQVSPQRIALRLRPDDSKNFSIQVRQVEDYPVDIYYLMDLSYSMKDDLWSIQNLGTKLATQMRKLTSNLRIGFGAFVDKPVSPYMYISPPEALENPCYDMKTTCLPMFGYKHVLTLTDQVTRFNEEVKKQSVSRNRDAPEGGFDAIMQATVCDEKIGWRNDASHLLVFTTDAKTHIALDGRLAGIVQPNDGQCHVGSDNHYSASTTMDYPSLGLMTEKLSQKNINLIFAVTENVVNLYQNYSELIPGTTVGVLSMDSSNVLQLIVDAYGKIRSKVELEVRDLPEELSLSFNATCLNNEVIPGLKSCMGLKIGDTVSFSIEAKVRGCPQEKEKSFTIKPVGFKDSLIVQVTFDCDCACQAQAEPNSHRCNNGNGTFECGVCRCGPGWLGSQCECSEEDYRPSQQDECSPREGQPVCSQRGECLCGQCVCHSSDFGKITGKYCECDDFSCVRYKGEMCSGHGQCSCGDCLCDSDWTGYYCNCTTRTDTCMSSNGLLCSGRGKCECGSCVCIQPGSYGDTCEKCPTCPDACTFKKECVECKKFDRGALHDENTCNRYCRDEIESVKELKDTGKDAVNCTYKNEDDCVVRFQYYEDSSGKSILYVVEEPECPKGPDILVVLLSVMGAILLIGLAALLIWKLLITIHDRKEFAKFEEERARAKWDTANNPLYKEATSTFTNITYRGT

Turning to “DOTA-(AF)SAv/biotin-PEG-RGD2: unlabeled complex comprising DOTA-(AF)SAv and biotin-PEG-RGD2”, the IC50 worked out at 12.1 ± 4.2 nM.
